From patent US20150239977A1 (MIT, published 2015)
Numbering of substitutions follows the chain as printed. Names may count otherwise. Each block holds one binder with its values, some of them ahead of it.

Molecular target: T1, CD20 protein on the surface of B-cells (Raji cells, a Burkitt's lymphoma cell line) (human, UniProt P11836 1-297)
T1 construct: also called CD20 antigen; B lymphocyte antigen CD20
T1 sequence: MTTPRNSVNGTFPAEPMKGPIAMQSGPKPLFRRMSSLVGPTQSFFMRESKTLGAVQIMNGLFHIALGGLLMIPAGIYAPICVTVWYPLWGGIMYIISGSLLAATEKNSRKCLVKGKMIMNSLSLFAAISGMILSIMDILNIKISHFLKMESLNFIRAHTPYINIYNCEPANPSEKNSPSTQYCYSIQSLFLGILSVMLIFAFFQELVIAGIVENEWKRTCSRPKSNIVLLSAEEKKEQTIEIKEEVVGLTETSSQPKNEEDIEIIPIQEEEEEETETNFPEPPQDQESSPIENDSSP
Test: indirect immunofluorescence on Raji cells, flow cytometry
Procedure: Binding affinity of an antibody to its target antigen can be an indicator of antibody efficacy. An indirect immunofluorescence cell-based binding assay was conducted to determine the dissociation constant (KD) between select CD20-binding proteins of the invention and the targeted antigen (CD20 protein on the surface of B-Cells). […] Because of this, the raw data was fitted to the following equation: […]

binding result: binds
B1: CD20-binding protein with M1/M2/M3/M4/M7 modifications (V3Q, A9S, I10S, V59S, L153D in the rituximab light chain) (antibody, human IgG1, kappa, V domains shown)
VH: QVQLQQPGAELVKPGASVKMSCKASGYTFTSYNMHWVKQTPGRGLEWIGAIYPGNGDTSYNQKFKGKATLTADKSSSTAYMQLSSLTSEDSAVYYCARSTYYGGDWYFNVWGAGTTVTVSA
VL: QIQLSQSPSSLSASPGEKVTMTCRASSSVSYIHWFQQKPGSSPKPWIYATSNLASGVPSRFSGSGSGTSYSLTISRVEAEDAATYYCQQWTSNPPTFGGGTKLEIKR
notes: Heavy chain unmodified; whole IgG as for the wild type; also called M1/2/3/4/7

binding result: no binding
B2: CD20-binding protein with the M9 modification (Y101S in the rituximab Fab heavy chain, in the CDR) (antibody, human IgG1, kappa, V domains shown)
VH: B1 VH with Y101S
VL: B1 VL with Q3V, S9A, S10I, S59V
notes: Whole IgG as for the wild type; also called M9 (Y101S); CDR mutation
